Experimental data from PMC4734682, “Evidence for the Nucleo-Apical Shuttling of a Beta-Catenin Like Plasmodium falciparum Armadillo Repeat Containing Protein” (PLoS ONE, 2016).

How the values were obtained:
[1] = target: T1, rPfARO (Plasmodium falciparum 3D7) (UniProt C0H4A5); test: EMSA; conditions: EMSA: 10 mM Tris-Cl pH 7.5, 100 mM KCl, 5 mM MgCl2, 2 mM DTT, 6% glycerol, 50 ug/ml BSA, 25 ul; temperature not stated
T1 sequence: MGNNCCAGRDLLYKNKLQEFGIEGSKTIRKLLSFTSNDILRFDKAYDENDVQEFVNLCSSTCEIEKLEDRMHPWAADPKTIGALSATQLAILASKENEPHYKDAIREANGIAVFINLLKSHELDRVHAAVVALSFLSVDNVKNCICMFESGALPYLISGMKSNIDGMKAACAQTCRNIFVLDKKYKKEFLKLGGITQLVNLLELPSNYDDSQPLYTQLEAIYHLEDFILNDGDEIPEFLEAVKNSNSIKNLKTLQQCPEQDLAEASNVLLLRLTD

[2] = target: T1, rPfARO (Plasmodium falciparum 3D7); test: competition; conditions: EMSA: 10 mM Tris-Cl pH 7.5, 100 mM KCl, 5 mM MgCl2, 2 mM DTT, 6% glycerol, 50 ug/ml BSA, 25 ul; temperature not stated
[3] = target: the molecule itself; test: non-reducing SDS-PAGE; purified rPfARO run under non-reducing conditions, stained gel and anti-His immunoblot; ~60 kDa dimer band beside the ~32 kDa monomer; dimer band diminished progressively with increasing DTT; both bands confirmed as PfARO by LC-MS
[4] = target: the molecule itself; test: non-reducing SDS-PAGE; immunoblot of parasite lysate under non-reducing conditions with anti-PfARO antibodies; ~60 kDa dimer beside the ~32 kDa monomer

For “TTTTATATCATTTAATTCATATGTCTTTTCTTTCTTCTTCGCCTTCAGATCATAAGGATCTTGGACCTTTTTTCTTTCCTTCTTTTCAGAACACAAAGATGTACAACTAAAAGCATTGTCTGTATATGTTGAACGATTACTCTTGAAGGATCCCG (double strand) [AT-rich PfgyrA DNA]”, the binding [1] was “binds” and the binding [2] was “binds”.

B1: Recombinant PfARO (P. falciparum Armadillo Repeats Only protein), full length, C-terminal 6-His tag (natural protein, P. falciparum (strain 3D7), UniProt C0H4A5 1-275, looked up)
chain: MGNNCCAGRDLLYKNKLQEFGIEGSKTIRKLLSFTSNDILRFDKAYDENDVQEFVNLCSSTCEIEKLEDRMHPWAADPKTIGALSATQLAILASKENEPHYKDAIREANGIAVFINLLKSHELDRVHAAVVALSFLSVDNVKNCICMFESGALPYLISGMKSNIDGMKAACAQTCRNIFVLDKKYKKEFLKLGGITQLVNLLELPSNYDDSQPLYTQLEAIYHLEDFILNDGDEIPEFLEAVKNSNSIKNLKTLQQCPEQDLAEASNVLLLRLTD
notes: PfARO, Plasmodium falciparum strain 3D7, PlasmoDB PF3D7_0414900; full length open reading frame of 275 amino acids amplified from 3D7 cDNA; putative NES at residues 198-204 (LVNLLEL); nine cysteines; Cloned NdeI/XhoI into pET-24b; also called rPfARO; ARM Repeats Only; source: E. coli BL21 (DE3) Codon+, purified (Ni-NTA, size exclusion chromatography on Superdex-200); not shown: His6, C-terminal, …
In the case of B1, the “stoichiometry N” value [3] is reported as 2.

B2: Native PfARO parasite protein (natural protein, UniProt C0H4A5 1-275, looked up)
chain: MGNNCCAGRDLLYKNKLQEFGIEGSKTIRKLLSFTSNDILRFDKAYDENDVQEFVNLCSSTCEIEKLEDRMHPWAADPKTIGALSATQLAILASKENEPHYKDAIREANGIAVFINLLKSHELDRVHAAVVALSFLSVDNVKNCICMFESGALPYLISGMKSNIDGMKAACAQTCRNIFVLDKKYKKEFLKLGGITQLVNLLELPSNYDDSQPLYTQLEAIYHLEDFILNDGDEIPEFLEAVKNSNSIKNLKTLQQCPEQDLAEASNVLLLRLTD
notes: PfARO, Plasmodium falciparum strain 3D7, PlasmoDB PF3D7_0414900; native protein detected at ~32 kDa; source: endogenous, P. falciparum 3D7 schizont-stage parasite lysate (detergent based)
For B2, the “stoichiometry N” value [4] was 2.
